Experimental data published in the supplement of paper PMC10567573.

B1: OR10K2 (parent)
chain: SLARLQQLLFVIFLLLYLFTLGTN
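Further: lentivirally expressed fusions sorted by FACS into six bins by GFP to DsRed ratio, PSI derived from sequencing read proportions per bin multiplied by bin number.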

Variants of: B1
Assay: protein stability index of a GFP-peptide fusion (GPS, HEK-293T) (PSI 1-6); higher = more stable
Details: c terminus: a fixed tail appended
SLARLQILLFVIFLLLYLFTLGTN [Q7I] gave a protein stability index of 1.99.
For SLARLQPLLFVIFLLLYLFTLGTN [Q7P], the protein stability index was 1.9.
With SLARLQKLLFVIFLLLYLFTLGTN [Q7K] the protein stability index was 3.27.
Variant SLARLQRLLFVIFLLLYLFTLGTN [Q7R] has a protein stability index of 2.45.
Work on SLARLQNLLFVIFLLLYLFTLGTN [Q7N] yielded a protein stability index of 3.21.
With SLARLQYLLFVIFLLLYLFTLGTN [Q7Y] the protein stability index was 1.66.
SLARLQHLLFVIFLLLYLFTLGTN [Q7H] gave a protein stability index of 1.9.
Work on SLARLQGLLFVIFLLLYLFTLGTN [Q7G] yielded a protein stability index of 3.23.
In the case of SLARLQELLFVIFLLLYLFTLGTN [Q7E], the protein stability index is reported as 2.69.
Variant SLARLQTLLFVIFLLLYLFTLGTN [Q7T] has a protein stability index of 1.74.
In the case of SLARLQVLLFVIFLLLYLFTLGTN [Q7V], the protein stability index is reported as 2.1.
For SLARLQFLLFVIFLLLYLFTLGTN [Q7F], the protein stability index was 1.79.
SLARLQSLLFVIFLLLYLFTLGTN [Q7S] showed a protein stability index of 2.11.
Variant SLARLQALLFVIFLLLYLFTLGTN [Q7A] has a protein stability index of 1.91.
SLARLQCLLFVIFLLLYLFTLGTN [Q7C] gave a protein stability index of 2.1.
Work on SLARLQLLLFVIFLLLYLFTLGTN [Q7L] yielded a protein stability index of 1.72.
Work on SLARLQWLLFVIFLLLYLFTLGTN [Q7W] yielded a protein stability index of 1.58.
SLARLQMLLFVIFLLLYLFTLGTN [Q7M] showed a protein stability index of 2.14.
In the case of SLARLQQLLFVIFLLLYLFTLGHN [T23H], the protein stability index is reported as 1.75.
SLARLQQLLFVIFLLLYLFTLGCN [T23C] gave a protein stability index of 4.22.
With SLARLQQLLFVIFLLLYLFTLGSN [T23S] the protein stability index was 1.86.
SLARLQQLLFVIFLLLYLFTLGDN [T23D] gave a protein stability index of 1.44.
Variant SLARLQQLLFVIFLLLYLFTLGRN [T23R] has a protein stability index of 1.53.
With SLARLQQLLFPIFLLLYLFTLGTN [V11P] the protein stability index was 2.94.
Variant SLARLQQLLFFIFLLLYLFTLGTN [V11F] has a protein stability index of 2.58.
In the case of SLARLQQLLFTIFLLLYLFTLGTN [V11T], the protein stability index is reported as 3.08.
For SLARLQQLLFYIFLLLYLFTLGTN [V11Y], the protein stability index was 2.3.
SLARLQQLLFAIFLLLYLFTLGTN [V11A] showed a protein stability index of 1.59.
For SLARLQQLLFSIFLLLYLFTLGTN [V11S], the protein stability index was 1.85.
For SLARLQQLLFHIFLLLYLFTLGTN [V11H], the protein stability index was 2.61.
SLARLQQLLFMIFLLLYLFTLGTN [V11M] gave a protein stability index of 3.05.
Variant SLARLQQLLFVIFLVLYLFTLGTN [L15V] has a protein stability index of 1.48.
SLARLQQLLFVIFLQLYLFTLGTN [L15Q] showed a protein stability index of 2.4.
SLARLQQLLFVIFLTLYLFTLGTN [L15T] showed a protein stability index of 2.62.
SLARLWQLLFVIFLLLYLFTLGTN [Q6W] gave a protein stability index of 2.2.
For SLARLYQLLFVIFLLLYLFTLGTN [Q6Y], the protein stability index was 2.6.
For SLARLQQLLFVIFLLLYGFTLGTN [L18G], the protein stability index was 2.29.
With SLARLQQLLFVIFLLLYSFTLGTN [L18S] the protein stability index was 2.25.
Variant SLARLQQLLFVIFLLLYKFTLGTN [L18K] has a protein stability index of 2.07.
For SLARLQQLLFVIFLLLYMFTLGTN [L18M], the protein stability index was 2.1.
With SLARLQQLLFVIFLLLYIFTLGTN [L18I] the protein stability index was 2.73.
Work on SLARLQQLLFVIFLLLYDFTLGTN [L18D] yielded a protein stability index of 1.64.
With SLARLQQLLFVIFLLTYLFTLGTN [L16T] the protein stability index was 3.42.
Work on SLARLQQLLFVIFLLYYLFTLGTN [L16Y] yielded a protein stability index of 3.45.
SLARLQQLLFVIFLLSYLFTLGTN [L16S] gave a protein stability index of 3.14.
SLARLQQLLFVIFLLIYLFTLGTN [L16I] showed a protein stability index of 2.15.
Work on SLARLQQLLFVIFLLEYLFTLGTN [L16E] yielded a protein stability index of 3.61.
With SLARLQQLLFVIQLLLYLFTLGTN [F13Q] the protein stability index was 3.04.
SLARLQQLLFVIKLLLYLFTLGTN [F13K] gave a protein stability index of 1.43.
With SLARLQQLLFVICLLLYLFTLGTN [F13C] the protein stability index was 3.12.
Work on SLARLQQLLFVIHLLLYLFTLGTN [F13H] yielded a protein stability index of 2.96.
Work on SLARLQQLLFVIALLLYLFTLGTN [F13A] yielded a protein stability index of 2.44.
SLARLQQLLFVIYLLLYLFTLGTN [F13Y] showed a protein stability index of 3.74.
For SLARLQQLLFVIWLLLYLFTLGTN [F13W], the protein stability index was 3.36.
SLARLQQLLFVIGLLLYLFTLGTN [F13G] gave a protein stability index of 1.73.
With SLARLQQLWFVIFLLLYLFTLGTN [L9W] the protein stability index was 2.84.
Work on SLARLQQLPFVIFLLLYLFTLGTN [L9P] yielded a protein stability index of 3.06.
With SLARLQQLCFVIFLLLYLFTLGTN [L9C] the protein stability index was 3.51.
SLARLQQLIFVIFLLLYLFTLGTN [L9I] gave a protein stability index of 2.15.
For SLARLQQLKFVIFLLLYLFTLGTN [L9K], the protein stability index was 3.92.
Variant SLARLQQLLFVIFLLLYLFFLGTN [T20F] has a protein stability index of 3.51.
SLARLQQLLFVIFLLLYLFRLGTN [T20R] gave a protein stability index of 2.2.
Variant SLARLQQLLFVIFLLLYLFILGTN [T20I] has a protein stability index of 2.11.
With SLARLQQLLFVIFLLLYLFNLGTN [T20N] the protein stability index was 3.75.
In the case of SLARLQQLLFVIFLLLYLFMLGTN [T20M], the protein stability index is reported as 1.29.
Work on SLARLQQLLFVIFLLLYLFLLGTN [T20L] yielded a protein stability index of 1.5.
SLARLQQLLFVIFLLLYLFQLGTN [T20Q] showed a protein stability index of 1.45.
In the case of SLARLQQLLFVIFLLLWLFTLGTN [Y17W], the protein stability index is reported as 2.13.
Variant SLARLQQLLFVIFLLLILFTLGTN [Y17I] has a protein stability index of 3.43.
SLARLQQLLFVIFLLLVLFTLGTN [Y17V] showed a protein stability index of 1.57.
Variant SLARLQQLLFVIFLLLCLFTLGTN [Y17C] has a protein stability index of 2.72.
With SLARLQQLLFVIFLLLLLFTLGTN [Y17L] the protein stability index was 2.34.
With SLARLQQLLFVIFLLLFLFTLGTN [Y17F] the protein stability index was 1.68.
Work on SLARLQQLLFVIFLLLYLITLGTN [F19I] yielded a protein stability index of 1.51.
Work on SLARLQQLLFVIFLLLYLMTLGTN [F19M] yielded a protein stability index of 2.17.
With SLARLQQLLFVIFLLLYLLTLGTN [F19L] the protein stability index was 2.05.
With SLARLQQLLFVIFLLLYLFTLGTT [N24T] the protein stability index was 2.4.
SLARLQQLLFVIFLLLYLFTLGTL [N24L] gave a protein stability index of 3.23.
Work on SLARLQQLLFVIFLLLYLFTLGTI [N24I] yielded a protein stability index of 2.75.
Variant SLARLQQLLFVIFLLLYLFTLGTW [N24W] has a protein stability index of 1.99.
With SLARLQQLLFVIFLLLYLFTLGTF [N24F] the protein stability index was 2.87.
For SLARLQQLLFVIFLLLYLFTLGTA [N24A], the protein stability index was 2.11.
For SLARLQQLLFVIFLLLYLFTLNTN [G22N], the protein stability index was 3.78.
Variant SLARLQQLLFVIFLLLYLFTLKTN [G22K] has a protein stability index of 2.48.
Work on SLARLQQLLFVIFLLLYLFTLHTN [G22H] yielded a protein stability index of 2.3.
Work on SLARLQQLLFVIFLLLYLFTLWTN [G22W] yielded a protein stability index of 2.11.
In the case of SLARLQQLLFVIFLLLYLFTLCTN [G22C], the protein stability index is reported as 2.65.
With SLARLQQLLFVLFLLLYLFTLGTN [I12L] the protein stability index was 2.29.
In the case of SLARLQQLLFVKFLLLYLFTLGTN [I12K], the protein stability index is reported as 3.69.
In the case of SLARLQQLLFVEFLLLYLFTLGTN [I12E], the protein stability index is reported as 1.78.
In the case of SLARLQQLLFVPFLLLYLFTLGTN [I12P], the protein stability index is reported as 3.58.
For SLARLQQLLFVHFLLLYLFTLGTN [I12H], the protein stability index was 2.02.
For SLARLQQLLTVIFLLLYLFTLGTN [F10T], the protein stability index was 3.08.
In the case of SLARLQQLLYVIFLLLYLFTLGTN [F10Y], the protein stability index is reported as 2.37.
